The text below walks through data of publication PMC5542437, “Assembly and stoichiometry of the core structure of the bacterial flagellar type III export gate complex” (PLoS Biology, 2017).

B1: His-St-FliP (Salmonella FliP with a hexahistidine tag inserted between Gln-22 and Leu-23) (natural protein)
chain: QLPGLISQPLAGGGQSWSLSVQTLVFITSLTFLPAILLMMTSFTRIIIVFGLLRNALGTPSAPPNQVLLGLALFLTFFIMSPVIDKIYVDAYQPFSEQKISMQEALDKGAQPLRAFMLRQTREADLALFARLANSGPLQGPEAVPMRILLPAYVTSELKTAFQIGFTIFIPFLIIDLVIASVLMALGMMMVPPATIALPFKLMLFVLVDGWQLLMGSLAQSFYS
notes: FliP, Salmonella enterica, 25-kDa transmembrane protein; mature form studied; the signal peptide (Met-1 to Gln-22) is cleaved during membrane insertion; tag LHHHHHH inserted between Gln-22 and Leu-23; Hexameric ring in SEC peak 2; also called His-FliP; FliP6 ring; source: Salmonella SJW1368, membranes solubilised with 1% DDM or 1% LMNG; purified (Ni-NTA, SEC); not shown: His6 (LHHHHHH), internal …
B2: HA-FliQ (natural protein)
chain: MTPESVMMMGTEAMKVALALAAPLLLVALITGLIISILQAATQINEMTLSFIPKIVAVFIAIIVAGPWMLNLLLDYVRTLFSNLPYIIG
notes: FliQ, Salmonella enterica, transmembrane export gate protein; source: Salmonella SJW1368, pTrc99A-based plasmid, in DDM- or LMNG-solubilised membranes; co-purified

Data set [1] deals with the molecule itself. The experiment in a line: SEC; Ni-purified His-FliP or FliO/His-FliP complexes (wild type and mutants) on Superdex 200 10/300; 20 mM Tris-HCl pH 8.0, 300 mM NaCl, 2 mM EDTA, 5% glycerol, 0.1% DDM.
Data set [2] addresses T1, FlhA (Salmonella enterica, UniProt P40729 1-692).
T1 construct: FlhA, Salmonella enterica, transmembrane export gate protein; source: Salmonella SJW1368, pTrc99A-based plasmid, in DDM- or LMNG-solubilised membranes; co-purified
T1 sequence: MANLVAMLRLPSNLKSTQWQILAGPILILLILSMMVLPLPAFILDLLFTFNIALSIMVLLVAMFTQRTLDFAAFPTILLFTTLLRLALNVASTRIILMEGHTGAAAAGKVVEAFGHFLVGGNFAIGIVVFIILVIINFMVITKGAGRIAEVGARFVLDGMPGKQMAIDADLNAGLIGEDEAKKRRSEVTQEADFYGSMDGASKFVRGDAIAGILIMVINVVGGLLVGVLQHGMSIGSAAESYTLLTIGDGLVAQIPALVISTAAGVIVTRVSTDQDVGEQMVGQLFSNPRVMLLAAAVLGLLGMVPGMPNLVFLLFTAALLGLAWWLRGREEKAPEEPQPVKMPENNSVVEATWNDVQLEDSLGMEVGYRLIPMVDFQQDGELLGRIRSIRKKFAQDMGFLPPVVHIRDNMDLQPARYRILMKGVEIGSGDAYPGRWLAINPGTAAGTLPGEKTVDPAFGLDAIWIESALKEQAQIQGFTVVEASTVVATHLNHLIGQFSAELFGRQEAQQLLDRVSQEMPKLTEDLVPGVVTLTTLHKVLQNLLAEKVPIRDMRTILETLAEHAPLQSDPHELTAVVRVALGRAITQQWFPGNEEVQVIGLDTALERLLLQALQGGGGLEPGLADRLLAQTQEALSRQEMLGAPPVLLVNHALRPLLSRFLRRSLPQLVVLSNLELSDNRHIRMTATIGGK
Description: pull-down; Ni-NTA copurification with His-FliP from SJW1368 co-expressing FlhA, FlhB, FliO, His-FliP, HA-FliQ and FliR-FLAG; membranes solubilised with 1% LMNG; immunoblot (lane L of Fig 6B). Particulars: partners not purified.

Data set [3] concerns the molecule itself. The experiment in a line: negative-stain electron microscopy with 2D class averaging; purified SEC peak fractions, 1.0% uranyl acetate, 100 kV; autocorrelation analysis for the rotational symmetry of the FliP ring.
The target of data set [4] is T2, FliR-FLAG (Salmonella enterica, UniProt P54702 1-264).
T2 construct: FliR, Salmonella enterica, transmembrane export gate protein; also called FLAG-FliR (as printed in the methods); source: Salmonella SJW1368, pTrc99A-based plasmid, in DDM- or LMNG-solubilised membranes; co-purified (Ni-NTA, anti-FLAG gel, SEC)
T2 sequence: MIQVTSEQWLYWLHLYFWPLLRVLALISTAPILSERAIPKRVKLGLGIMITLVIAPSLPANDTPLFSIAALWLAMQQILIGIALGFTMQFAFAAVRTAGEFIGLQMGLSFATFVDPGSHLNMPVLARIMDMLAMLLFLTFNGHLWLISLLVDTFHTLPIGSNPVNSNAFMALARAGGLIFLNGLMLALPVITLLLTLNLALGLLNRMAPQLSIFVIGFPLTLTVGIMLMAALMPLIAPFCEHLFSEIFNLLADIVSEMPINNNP
Description: pull-down; copurification from Salmonella SJW1368 co-expressing His-FliP with other export gate proteins; membranes solubilised with 1% DDM; Ni affinity, then anti-FLAG M2 affinity (eluted with FLAG peptide), then SEC on Superdex 200 10/300; SDS-PAGE with CBB. Particulars: partners not purified.

Data set [5] deals with T3, FlhB (Salmonella enterica, UniProt P40727 1-383).
T3 construct: FlhB, Salmonella enterica, transmembrane export gate protein; its C-terminal cytoplasmic domain undergoes autocleavage between Asp-269 and Pro270 as printed; source: Salmonella SJW1368, pTrc99A-based plasmid, in DDM- or LMNG-solubilised membranes; co-purified
T3 sequence: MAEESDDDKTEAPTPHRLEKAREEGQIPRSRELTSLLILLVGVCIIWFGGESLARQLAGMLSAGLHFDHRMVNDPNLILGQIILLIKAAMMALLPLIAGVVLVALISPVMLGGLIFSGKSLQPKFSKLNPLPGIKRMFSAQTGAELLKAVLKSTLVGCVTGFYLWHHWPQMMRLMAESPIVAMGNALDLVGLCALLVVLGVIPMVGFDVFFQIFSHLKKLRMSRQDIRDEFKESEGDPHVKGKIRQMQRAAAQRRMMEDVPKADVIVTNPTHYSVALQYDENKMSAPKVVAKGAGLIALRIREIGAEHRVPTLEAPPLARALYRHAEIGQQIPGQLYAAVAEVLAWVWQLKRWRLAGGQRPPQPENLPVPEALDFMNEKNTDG
The data set is described as above. Particulars: partners not purified.

In data set [6] the target is B1. Description: pull-down; Ni-NTA copurification with His-FliP from SJW1368 co-expressing FlhA, FlhB, FliO, His-FliP, HA-FliQ and FliR-FLAG; membranes solubilised with 1% LMNG; immunoblot (lane L of Fig 6B). Particulars: partners not purified.

Regarding B1, the “stoichiometry N” value in data set [1] turned out to be 2; in data set [3] it was 6. The binding result in data set [2], in data set [4] and in data set [5] was “binds” in each case.
As to B2, the binding result in data set [6] was “binds”.
